What is called koff is the rate constant with which the complex falls apart. A higher koff goes with fast dissociation. The kon is a measure of how fast the partners come together. A high value points to fast association. As usually defined, the Kd is a measure of binding affinity in units of concentration.

Experiment [1] addresses T1, MS2 bacteriophage coat protein (MS2 bacteriophage, UniProt P03612 2-130).
T1 sequence: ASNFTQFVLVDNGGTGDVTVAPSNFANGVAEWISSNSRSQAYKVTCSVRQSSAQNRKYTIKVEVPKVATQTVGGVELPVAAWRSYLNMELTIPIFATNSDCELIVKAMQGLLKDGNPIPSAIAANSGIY
Description: SPR (Biacore), FIG. 2D.

Experiment [2] concerns the target T1, MS2 bacteriophage coat protein. Description: SPR (Biacore T200), MS2 immobilised on CM5 chip, scFv in solution. (In general: In SPR one partner is held on a chip, and binding of the other changes the refractive index at the surface.)
Description: (§1) Binding affinity measurements for the antibody variants were obtained by surface immobilization of antigen. Specifically, kinetic analysis was performed using a Biacore T200 (GE Healthcare, Waukesha, Wis.). […] For full-length IgGs, a capture assay was used to allow accurate assessment of antibody affinity. […] Surfaces were regenerated using 3 M MgCl₂. Association and dissociation kinetic values (kₐ and kd) were determined from a best fit of the data with the 1:1 Langmuir global fitting procedure to sensorgrams using the Biacore T200 Evaluation Software, version 1.0.
For experiment [3] the target is unchanged. Put plainly: SPR (Biacore T200), IgG captured on anti-human IgG Fc, MS2 antigen flowed over.
Description: as §1
The target is the same in experiment [4]. Put plainly: SPR (Biacore), FIG. 2C.
The target is the same in experiment [5]. Description: SPR (Biacore), FIG. 7C.
Experiment [6] has the same target. Put plainly: SPR (Biacore).
Experiment [7] shares this target. Description: SPR (Biacore), FIG. 3D.

B1: mouse anti-MS2 scFv (scFv)
scFv: EVKLVESGGGLVKPGGSLKLSCAASGFTFSSYAMSWVRQTPEKRLEWVATISTGGGYTYFPDSVKGRFTISRDNAKNALYLQMKSLRSEDTAMYYCARQGDFGDWYFDVWGAGTTVTVSSGGGGSGGGGSGGGGSDVLMTQTPLSLPVSLGDQASISCRSSQSLVHSNGNTYLHWYLQKPGQSPKLLIYKVSNRFSGVPDRFSGSGSGTDFTLKISRVEAEDLGVYFCSQSTHVPWTFGGGTKLEIK
In experiment [1], B1 registered an off-rate (koff) of 0.008 s⁻¹ and a kon of 280000 M⁻¹ s⁻¹. Also, binding in experiment [2] was characterised by a dissociation constant (Kd) of 29 nM.

B2: APE443 (antibody, V domains shown)
VH: EVQLLESGGGLVQPGGSLRLSCAASGFTFSSYAMSWVRQAPGKGLEWVSTISTGGGYTYFPDSVKGRFTISRDNSKNTLYLQMNSLRAEDTAVYYCARQGDFGDWYFDVWGAGTTVTVSS
VL: DVVMTQSPLSLPVTLGQPASISCRSSQSLVHSNGNTYLHWFQQRPGQSPRRLIYKVSNRFSGVPDRFSGSGSGTDFTLKISRVEAEDVGVYYCSQSTHVPWTFGGGTKLEIK
notes: also called initial CDR-grafted antibody; initial grafted antibody
The molecule B2 came in with a Kd in experiment [3] of 84 nM. Moreover, in experiment [4], binding was put at a Kd of 170 nM, the koff came to 0.011 s⁻¹ and the on-rate constant (kon) is 68000 M⁻¹ s⁻¹.

B3: APE1027 (antibody, V domains shown)
VH: EVQLVESGGGLVQPGGSLILSCVASGFTFSSYAMSWVRQAPGKGLEWVCTISTGGGYTYSPDSVKGRFTCSRDNSKNTLYLQMNSLRAEDTAVYYCARQGDFGDWYFDVWGAGTTVTVSS
VL: DVVLTQSPLSLAVLLGQPASISCRSSESLVHTNGNTYLHWYQQRPGQSPRLLIYKVSNRFSGVPDRFSGSGSGTDFTLKISRVEAEDVGVYFCSQSTRVPWTFGGGTKLEIK
For B3, in experiment [5], the koff came to 8.5e-05 s⁻¹ and the on-rate (kon) came out at 97000 M⁻¹ s⁻¹. This molecule also returned a Kd in experiment [3] of 0.88 nM.

B4: APE1052 (antibody, V domains shown)
VH: EVQLLESGGGLVQPGGSLRLSCAASGFTFSSYAMSWVRQAPGKGLEWVSTISTGGGYTYFPDSVKGRFTISRDNSKNTLYLQMNSLRAEDTAVYYCARQGDFGDWYFDVWGAGTTVTVSS
VL: DVVMTQSPLSLPVTLGQPASISCRSSESLVHTNGNTYLHWYQQRPGQSPRLLIYKVSNRFSGVPDRFSGSGSGTDFTLKISRVEAEDVGVYFCSQSTRVPWTFGGGTKLEIK
Regarding B4, the “fold improvement in KD over the initial grafted antibody (APE443)” value in experiment [6] stood at 20 fold. The molecule also registered a Kd in experiment [3] of 4.2 nM.

B5: APE850 (antibody, V domains shown)
VH: EVQLLESGGGLVQPGGSLRLSCVASGFTFSSYAMSWVRQAPGKGLEWVSTISTGGGYTYSPDSVKGRFTISRDNSKNTLYLQMNSLRAEDTAVYYCARQGDFGDWYFDVWGAGTTVTVSS
VL: DVVMTQSPLSLPVTLGQPASISCRSSESLVHTNGNTYLHWYQQRPGQSPRLLIYKVSNRFSGVPDRFSGSGSGTDFTLKISRVEAEDVGVYFCSQSTRVPWTFGGGTKLEIK
Take B5: in experiment [6], the “fold improvement in KD over the initial grafted antibody (APE443)” value came out at 85 fold, the “fold improvement in ka over the initial grafted antibody (APE443)” value stood at 12 fold and the “fold improvement in kd over the initial grafted antibody (APE443)” value was 7 fold. Further, in experiment [3], the Kd came out at 0.985 nM.

B6: APE849 (antibody, V domains shown)
VH: EVQLLESGGGLVQPGGSLRLSCAASGFTFSSYAMSWVRQAPGKGLEWVSTISTGGGYTYSPDSVKGRFTISRDNSKNTLYLQMNSLRAEDTAVYYCARQGDFGDWYFDVWGAGTTVTVSS
VL: DVVMTQSPLSLPVTLGQPASISCRSSESLVHTNGNTYLHWYQQRPGQSPRLLIYKVSNRFSGVPDRFSGSGSGTDFTLKISRVEAEDVGVYFCSQSTRVPWTFGGGTKLEIK
As to B6, the “fold improvement in affinity (reference not given)” value in experiment [6] was 40 fold. Besides, binding in experiment [3] was characterised by a dissociation constant (Kd) of 2 nM.

B7: APE830 (antibody, V domains shown)
VH: EVQLLESGGGLVQPGGSLRLSCVASGFTFSSYAMSWVRQAPGKGLEWVSTISTGGGYTYFPDSVKGRFTISRDNSKNTLYLQMNSLRAEDTAVYYCARQGDFGDWYFDVWGAGTTVTVSS
VL: DVVMTQSPLSLPVTLGQPASISCRSSESLVHTNGNTYLHWYQQRPGQSPRLLIYKVSNRFSGVPDRFSGSGSGTDFTLKISRVEAEDVGVYFCSQSTRVPWTFGGGTKLEIK
B7 registered a Kd in experiment [3] of 1.6 nM.

B8: APE556 (antibody, V domains shown)
VH: EVQLLESGGGLVQPGGSLRLSCAASGFTFSSYAMSWVRQAPGKGLEWVSTISTGGGYTYFPDSVKGRFTISRDNSKNTLYLQMNSLRAEDTAVYYCARQGDFGDWYFDVWGAGTTVTVSS
VL: DVVMTQSPLSLPVTLGQPASISCRSSQSLVHSNGNTYLHWYQQRPGQSPRLLIYKVSNRFSGVPDRFSGSGSGTDFTLKISRVEAEDVGVYFCSQSTHVPWTFGGGTKLEIK
In experiment [7], B8 registered a koff of 0.0055 s⁻¹ and a kon of 210000 M⁻¹ s⁻¹. Also, the Kd in experiment [3] amounted to 27 nM.

B9: APE565 (antibody, V domains shown)
VH: EVQLLESGGGLVQPGGSLRLSCAASGFTFSSYAMSWVRQAPGKGLEWVCTISTGGGYTYFPDSVKGRFTCSRDNSKNTLYLQMNSLRAEDTAVYYCARQGDFGDWYFDVWGAGTTVTVSS
VL: DVVMTQSPLSLPVTLGQPASISCRSSQSLVHSNGNTYLHWYQQRPGQSPRLLIYKVSNRFSGVPDRFSGSGSGTDFTLKISRVEAEDVGVYFCSQSTHVPWTFGGGTKLEIK
B9: in experiment [6], the “fold improvement in KD over APE556” value was 4 fold. The same molecule yielded a dissociation constant Kd in experiment [3] of 7 nM.

B10: APE1051 (antibody, V domains shown)
VH: EVQLLESGGGLVQPGGSLRLSCVASGFTFSSYAMSWVRQAPGKGLEWVSTISTGGGYTYFPDSVKGRFTISRDNSKNTLYLQMNSLRAEDTAVYYCARQGDFGDWYFDVWGAGTTVTVSS
VL: DVVMTQSPLSLPVTLGQPASISCRSSQSLVHSNGNTYLHWYQQRPGQSPRLLIYKVSNRFSGVPDRFSGSGSGTDFTLKISRVEAEDVGVYFCSQSTHVPWTFGGGTKLEIK
In turn, B10 showed a Kd in experiment [3] of 15.1 nM. This lies in the double-digit nanomolar range.

Source of the values: patent US20140079691A1 (ANAPTYSBIO, published 2014).
